Test results as given in patent US20240384250A1, “FIBROBLAST GROWTH FACTOR 23 MODULATING COMPOUNDS” (THE UAB RESEARCH FOUNDATION, priority 2021, published 2024).
“Also recorded” adds a separate entry of the source.

Legend:
[1] = system: FGF19 binding to FGFR isoforms 1c, 2c, 3c, 4; assay: Pull-down and plate binding of FGF19 to FGFR isoforms with sKL or heparin; design: species or system human
Experimental: To study the interaction between Fc-tagged FGFR isoforms (Fc-FGFR), FGF isoforms, and sKL, immunoprecipitation studies were conducted. Protein A beads (6501, BioVision) and protein G beads (6511, BioVision) were used at 25 μl of a 50% stock slurry per sample in a total bead volume of 50 μl. Beads were washed 5× in activity buffer (50 mM Tris [pH 7.4], 200 mM NaCl, 0.01% Tween 20). Bead spin-down assays were all performed for 2 minutes at 5000 g. Beads were resuspended in 1 ml of activity buffer in a 1.5-ml snap cap tube. One microgram of Fc-FGFR1 to 4 was incubated with the beads for 1 hour on a bead rotator. Control samples were incubated with 2 μg of anti-FGF antibody instead of Fc-FGFR. […] Samples were analyzed using SDS-PAGE and Western blotting.
Proteins were coated on 96-well plates (MaxiSorp; 439454, Thermo Fisher Scientific), and proteins were added to wells in 100 μl of enzyme-linked immunosorbent assay (ELISA) coating buffer (E107, Bethyl Laboratories) with a lid placed overtop and incubated at 4° C. overnight. […] Reactions were stopped with ELISA stop solution (E115, Bethyl Laboratories) and analyzed using the Synergy HI plate reader (BioTek) at 450 nm wavelength. […] As a control to remove background absorbance values, wells were coated with an equal amount of BSA to match the amount of protein coated in experimental wells and treated the same as experimental wells. […]

[2] = Half-life of recombinant sKL in the circulation of rats; type: in vivo, rat; settings: tail vein injection 100 μg/kg
Experimental: To determine the half-life of recombinant sKL protein in the circulation, rats were injected with the Strep-tagged mouse sKL that was purified as described above. Each group consisted of 3 male Sprague Dawley rats (9 weeks of age and weighing approximately 300 g). For injections and bleeding, rats were anesthetized with 2.5% isoflurane. For injections, a shielded i.v. catheter (BD Insyte Autoguard 0.7×19 mm, catalog no. 381412) was inserted into the lateral tail vein and flushed with 100 μl of isotonic saline (0.9%). One milliliter of purified sKL protein dissolved in isotonic saline (100 μg/kg) or isotonic saline was then injected, and the catheter was flushed again with 100 μl of isotonic saline. For bleeding, a shielded i.v. catheter was inserted into the lateral tail vein. Blood samples (300 μl) were taken after 1, 3, 5, 10, 15, 30, and 60 minutes as well as 3, 6, 12, and 48 hours. For collections from 15 minutes to 48 hours postinjection, a separate i.v. catheter was inserted each time to draw blood. For collections from 1 to 15 minutes post-sKL injection, the same i.v. catheter was used, and to exclude contamination with the previous draw, the catheter was flushed with isotonic saline between each sample. […] Serum was then aliquoted and stored at approximately […] before analysis. For the sKL activity assay, wells were coated with 500 ng of mouse FGF23 in 100 μl of coating buffer (E107, Bethyl Laboratories) at 4° C. overnight. Plates were washed 5× at 350 μl of assay buffer (50 mM Tris, [pH 7.4] 200 mM NaCl, 0.01% Tween 20) on a 50 TS microplate washer (BioTek). Plates were blocked for 1 hour in 200 μl of assay buffer with 0.5% BSA. Plates were washed and incubated with 30 μl per well and 70 μl of assay buffer with 0.5% BSA. Standards were run at noted concentrations by using purified Strep-tagged mouse sKL protein with 30 μl of control serum and 70 μl of assay buffer with 0.5% BSA added to ensure consistency. All samples and standards were run in triplicates. After 1 hour, plates were washed, and 150 ng of Fc-FGFR1c were incubated on plates in 100 μl of assay buffer with 0.5% BSA. After 1 hour, plates were washed and incubated with anti-human Fc-HRP at 1:10,000. Plates were washed as above and 100 μl of TMB substrate (E102, Bethyl Laboratories) was added for 15 to 20 minutes until positive wells developed a dark blue color. Reactions were stopped with ELISA stop solution (E115, Bethyl Laboratories) and analyzed using the Synergy HI plate reader (BioTek) at 450 nm wavelength. Amounts of sKL were calculated by taking the slope of the standard curve and calculating where the sample points fit in.

Sequence of FGF19 binding to FGFR isoforms 1c, 2c, 3c, 4 (O95750 25-216): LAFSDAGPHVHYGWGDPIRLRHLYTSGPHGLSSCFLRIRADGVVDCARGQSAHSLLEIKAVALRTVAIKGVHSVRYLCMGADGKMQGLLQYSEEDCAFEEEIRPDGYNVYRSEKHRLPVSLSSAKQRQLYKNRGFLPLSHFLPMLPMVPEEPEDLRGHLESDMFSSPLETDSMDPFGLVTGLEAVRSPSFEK

B1: sKL: recombinant soluble α-klotho ectodomain, mouse aa 35-982 and human aa 34-981, FLAG- or Strep/His-tagged, purified from HEK293 cells (protein)
chain: EPGDGAQTWARFSRPPAPEAAGLFQGTFPDGFLWAVGSAAYQTEGGWQQHGKGASIWDTFTHHPLAPPGDSRNASLPLGAPSPLQPATGDVASDSYNNVFRDTEALRELGVTHYRFSISWARVLPNGSAGVPNREGLRYYRRLLERLRELGVQPVVTLYHWDLPQRLQDAYGGWANRALADHFRDYAELCFRHFGGQVKYWITIDNPYVVAWHGYATGRLAPGIRGSPRLGYLVAHNLLLAHAKVWHLYNTSFRPTQGGQVSIALSSHWINPRRMTDHSIKECQKSLDFVLGWFAKPVFIDGDYPESMKNNLSSILPDFTESEKKFIKGTADFFALCFGPTLSFQLLDPHMKFRQLESPNLRQLLSWIDLEFNHPQIFIVENGWFVSGTTKRDDAKYMYYLKKFIMETLKAIKLDGVDVIGYTAWSLMDGFEWHRGYSIRRGLFYVDFLSQDKMLLPKSSALFYQKLIEKNGFPPLPENQPLEGTFPCDFAWGVVDNYIQVDTTLSQFTDLNVYLWDVHHSKRLIKVDGVVTKKRKSYCVDFAAIQPQIALLQEMHVTHFRFSLDWALILPLGNQSQVNHTILQYYRCMASELVRVNITPVVALWQPMAPNQGLPRLLARQGAWENPYTALAFAEYARLCFQELGHHVKLWITMNEPYTRNMTYSAGHNLLKAHALAWHVYNEKFRHAQNGKISIALQADWIEPACPFSQKDKEVAERVLEFDIGWLAEPIFGSGDYPWVMRDWLNQRNNFLLPYFTEDEKKLIQGTFDFLALSHYTTILVDSEKEDPIKYNDYLEVQEMTDITWLNSPSQVAVVPWGLRKVLNWLKFKYGDLPMYIISNGIDDGLHAEDDQLRVYYMQNYINEALKAHILDGINLCGYFAYSFNDRTAPRFGLYRYAADQFEPKASMKHYRKIIDSNGFPGPETLERFCPEEFTVCTECSFFHTRKS
modifications: left off: small tags and cut ends
notes: recombinant soluble α-klotho ectodomain, mouse aa 35-982 and human aa 34-981, FLAG- or Strep/His-tagged, purified from HEK293 cells
[1]
  binding of FGF19 to any of the FGFR isoforms: did not mediate binding; also recorded: did not lead to complex formation; also recorded: did not bind any of the FGFR isoforms
[2]
  time postinjection from which sKL could no longer be detected: ≥ 3 h
[2]; earlier time points
  time post-injection after which sKL levels were reduced by about half: approximately 10 minutes
[2]; serum, listed as recombinant sKL protein
  half-life in the circulation: approximately 10 minutes
[2]; versus vehicle
  serum sKL level at the 15-minute time point: high levels of sKL were detected
